According to patent publication US20150065436A1, “INHIBITING INTERACTION BETWEEN HIF-1ALPHA AND p300/CBP WITH HYDROGEN BOND SURROGATE-BASED HELICES” (UNIVERSITY OF SOUTHERN CALIFORNIA, priority 2013, published 2015):
Values belong to the binder of their own block, whether it stands above or below them. code X = not defined here

Tests used:
[1] = biological target: p300-CH1 (cysteine-histidine rich 1 domain of human coactivator protein p300, amino acid residues 323-423) (human), Q09472; assay: tryptophan (Trp403) fluorescence spectroscopy, peptide titrated into 1 µM 15N-labeled p300-CH1
p300-CH1 (cysteine-histidine rich 1 domain of human coactivator protein p300, amino acid residues 323-423) (human), Q09472, sequence (Q09472 323-423 limits assumed): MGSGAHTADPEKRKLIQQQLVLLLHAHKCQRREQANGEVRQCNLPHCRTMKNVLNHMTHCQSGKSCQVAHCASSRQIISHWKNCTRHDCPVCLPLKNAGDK

[2] = biological target: coactivator protein p300 (or the homologous CREB binding protein, CBP) (human), Q09472; assay: cell-based or functional assay
coactivator protein p300 (or the homologous CREB binding protein, CBP) (human), Q09472, sequence (Q09472 2-2414 limits assumed): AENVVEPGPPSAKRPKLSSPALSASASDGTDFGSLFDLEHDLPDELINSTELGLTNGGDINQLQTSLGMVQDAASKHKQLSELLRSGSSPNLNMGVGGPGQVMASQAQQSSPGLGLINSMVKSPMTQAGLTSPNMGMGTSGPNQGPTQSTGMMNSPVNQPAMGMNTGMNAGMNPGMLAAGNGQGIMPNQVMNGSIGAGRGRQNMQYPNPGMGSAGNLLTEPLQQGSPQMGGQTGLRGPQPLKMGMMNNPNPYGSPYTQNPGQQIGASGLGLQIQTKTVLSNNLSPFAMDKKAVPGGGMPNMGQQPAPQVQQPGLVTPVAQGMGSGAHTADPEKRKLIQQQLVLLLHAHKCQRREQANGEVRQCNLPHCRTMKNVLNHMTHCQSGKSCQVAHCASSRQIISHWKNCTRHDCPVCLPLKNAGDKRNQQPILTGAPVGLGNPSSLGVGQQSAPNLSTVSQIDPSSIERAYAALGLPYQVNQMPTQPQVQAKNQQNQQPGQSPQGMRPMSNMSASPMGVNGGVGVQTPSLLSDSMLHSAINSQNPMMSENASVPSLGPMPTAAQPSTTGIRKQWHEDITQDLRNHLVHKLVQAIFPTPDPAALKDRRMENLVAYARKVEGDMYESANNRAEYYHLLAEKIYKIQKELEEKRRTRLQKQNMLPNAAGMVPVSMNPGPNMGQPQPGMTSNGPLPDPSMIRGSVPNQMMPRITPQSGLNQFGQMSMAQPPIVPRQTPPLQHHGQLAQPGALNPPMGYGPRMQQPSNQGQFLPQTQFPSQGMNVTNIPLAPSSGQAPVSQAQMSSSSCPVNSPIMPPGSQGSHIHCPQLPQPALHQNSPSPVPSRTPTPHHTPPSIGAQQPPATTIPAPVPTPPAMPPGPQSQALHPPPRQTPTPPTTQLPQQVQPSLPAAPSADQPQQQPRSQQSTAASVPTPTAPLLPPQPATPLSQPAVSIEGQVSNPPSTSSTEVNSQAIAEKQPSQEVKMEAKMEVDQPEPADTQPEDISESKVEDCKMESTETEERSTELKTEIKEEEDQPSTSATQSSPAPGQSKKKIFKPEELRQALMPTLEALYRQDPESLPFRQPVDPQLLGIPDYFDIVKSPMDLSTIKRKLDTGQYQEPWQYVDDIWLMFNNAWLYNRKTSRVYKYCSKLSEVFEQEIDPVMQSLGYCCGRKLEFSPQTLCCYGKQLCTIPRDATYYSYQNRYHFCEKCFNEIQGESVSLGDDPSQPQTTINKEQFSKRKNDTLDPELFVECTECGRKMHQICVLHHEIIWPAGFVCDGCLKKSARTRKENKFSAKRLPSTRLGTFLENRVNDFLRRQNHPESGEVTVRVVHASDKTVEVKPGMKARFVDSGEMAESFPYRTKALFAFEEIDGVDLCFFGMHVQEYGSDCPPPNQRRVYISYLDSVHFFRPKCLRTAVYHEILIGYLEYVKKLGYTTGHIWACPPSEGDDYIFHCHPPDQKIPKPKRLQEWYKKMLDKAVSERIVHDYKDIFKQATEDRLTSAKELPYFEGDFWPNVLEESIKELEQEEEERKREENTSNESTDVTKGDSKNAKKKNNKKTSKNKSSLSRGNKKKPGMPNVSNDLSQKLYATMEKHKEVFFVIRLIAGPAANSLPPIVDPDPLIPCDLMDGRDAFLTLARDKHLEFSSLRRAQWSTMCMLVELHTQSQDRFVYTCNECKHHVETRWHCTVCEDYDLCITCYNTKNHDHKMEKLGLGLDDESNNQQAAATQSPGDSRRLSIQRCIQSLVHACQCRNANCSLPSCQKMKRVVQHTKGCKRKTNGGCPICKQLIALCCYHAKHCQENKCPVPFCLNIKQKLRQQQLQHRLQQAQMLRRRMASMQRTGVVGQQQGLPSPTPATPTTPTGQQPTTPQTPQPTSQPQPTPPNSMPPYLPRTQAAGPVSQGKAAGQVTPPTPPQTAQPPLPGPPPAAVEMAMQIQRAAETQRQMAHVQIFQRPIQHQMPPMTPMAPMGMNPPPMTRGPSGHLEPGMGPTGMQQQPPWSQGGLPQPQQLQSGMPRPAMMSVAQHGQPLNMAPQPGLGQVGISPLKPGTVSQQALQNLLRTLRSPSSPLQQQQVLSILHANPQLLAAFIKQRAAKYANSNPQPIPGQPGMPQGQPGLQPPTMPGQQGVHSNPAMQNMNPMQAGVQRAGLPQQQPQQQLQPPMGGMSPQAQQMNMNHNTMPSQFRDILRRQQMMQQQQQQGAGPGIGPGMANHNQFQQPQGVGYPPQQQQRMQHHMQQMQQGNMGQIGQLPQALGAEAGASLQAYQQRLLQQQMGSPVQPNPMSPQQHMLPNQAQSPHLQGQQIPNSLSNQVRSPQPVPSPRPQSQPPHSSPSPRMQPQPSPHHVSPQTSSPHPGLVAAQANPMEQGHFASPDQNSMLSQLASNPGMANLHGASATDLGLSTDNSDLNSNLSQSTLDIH

[3] = biological target: p300-CH1 (cysteine-histidine rich 1 domain of human coactivator protein p300, amino acid residues 323-423) (human) (UniProt Q09472); assay: fluorescence polarization competition; HBS 1 added to preformed complex of 300 nM p300-CH1 and 15 nM Flu-HIF C-TAD
p300-CH1 (cysteine-histidine rich 1 domain of human coactivator protein p300, amino acid residues 323-423) (human), sequence (Q09472 323-423 limits assumed): as the sequence (Q09472 323-423 limits assumed) above

[4] = biological target: p300-CH1 (cysteine-histidine rich 1 domain of human coactivator protein p300, amino acid residues 323-423) (human) (UniProt Q09472); assay: tryptophan fluorescence spectroscopy; reference peptide 3
[5] = biological target: p300-CH1 (cysteine-histidine rich 1 domain of human coactivator protein p300, amino acid residues 323-423) (human) (UniProt Q09472); assay: tryptophan (Trp403) fluorescence spectroscopy, peptide titrated into 1 µM 15N-labeled p300-CH1
[6] = biological target: p300-CH1 (cysteine-histidine rich 1 domain of human coactivator protein p300, amino acid residues 323-423) (human) (UniProt Q09472); assay: fluorescence polarization competition: HBS 1 added to the preformed complex of p300-CH1 (300 nM) and Flu-HIF C-TAD (15 nM); displaced ligand: fluorescein-labeled HIF-1α C-TAD786-826
[7] = biological target: coactivator protein p300 (or the homologous CREB binding protein, CBP) (human) (UniProt Q09472); assay: cell-based or functional assay
coactivator protein p300 (or the homologous CREB binding protein, CBP) (human), sequence (Q09472 2-2414 limits assumed): as the sequence (Q09472 2-2414 limits assumed) above

- Kd [1]: 6.06 µM
- downregulation of SLC2A1 and LOX expression, qRT-PCR, hypoxic HeLa cells [2]: 25%
Binder: ELARALDQ (modifications not checked) [Peptide 3]

- Ki [3]: 3.5 µM
- fold increase in binding affinity over peptide 3 [4]: 9 fold
- Kd [5]: 0.69 µM
- IC50 (read off the curve) [6]: 10 µM
- expression levels of VEGF, qRT-PCR, hypoxic HeLa cells (% reduction at 10 µM) [7]: 50
- expression levels of VEGF, qRT-PCR, hypoxic HeLa cells (% reduction at 50 µM) [7]: > 60
- inhibition of SLC2A1 (GLUT1) expression, qRT-PCR, hypoxic HeLa cells [7]: 50 to 60%
- luciferase expression, HRE-luciferase reporter in MDA-MB-231-HRE-Luc cells under hypoxia (% reduction at 50 µM) [7]: 25
B1: HBS 1 (peptide)
chain: {code X}-ELARALDQ-NH2
modifications: not fully specified (residue 3, bridges); reading uncertain; also: hydrogen bond surrogate constraint, places not given here
